Measurements from article PMC4856149.
Read-outs that look alike come from different tables or passages of the source.

How the values were obtained:
recombinant GST-Arc [1] = target: recombinant GST-Arc (UniProt Q63053); test: Scatchard analysis
recombinant GST-Arc [2] = target: recombinant GST-Arc (UniProt Q63053); test: Scatchard analysis; remark: listed apart in the source

UniProt Q63053, sequence (Q63053 whole entry): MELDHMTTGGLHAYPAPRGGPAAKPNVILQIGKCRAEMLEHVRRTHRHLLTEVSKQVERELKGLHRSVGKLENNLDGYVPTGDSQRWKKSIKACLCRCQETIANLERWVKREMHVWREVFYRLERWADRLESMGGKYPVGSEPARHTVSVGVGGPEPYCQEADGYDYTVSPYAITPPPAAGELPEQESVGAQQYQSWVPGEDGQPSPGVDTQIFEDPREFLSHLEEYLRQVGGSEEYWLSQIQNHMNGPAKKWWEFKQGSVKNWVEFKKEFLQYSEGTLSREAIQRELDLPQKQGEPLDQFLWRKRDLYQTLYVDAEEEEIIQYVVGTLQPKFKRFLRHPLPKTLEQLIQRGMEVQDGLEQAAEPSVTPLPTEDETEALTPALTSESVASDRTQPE

Q: With “recombinant CaMKIIα (from UniProt P11275 1-478) (enzyme)” as the substance, how does the Kd (recombinant GST-Arc [1]) read?
A: Its Kd is 60 µM.

Q: What about the Kd (recombinant GST-Arc [2]) of the same substance?
A: Its Kd is 10 µM.
